From patent publication US8969027B2, “Protease assay” (priority 2008, dated 2015)
No end group written: not given here.

Legend:
[1] = Fluorescence quantum yield of TCPP; assay type: physicochemical; settings: untethered, non-metalated TCPP
Protocol: The emission spectra of the nanoplatform assembly (1×10^−5 M) in PBS in the presence of about 1×10^−8 M urokinase is depicted in FIG. 4, at 0 (A), 2 (B), 4 (C), and 6 minutes (D). […] The reason for the observed non-linear behavior can be found in the high fluorescence quantum yield of the untethered, non-metalated TCPP. We estimated Φ=0.082, which is approximately eight times higher than in the tethered state, when the large porphyrin-concentration in the sphere around the Fe/Fe3O4-nanoparticle leads to increase FRET and, consequently, radiation-less deactivation of the excited states.

urokinase [2] = biological target: T1, urokinase (Homo sapiens, UniProt P00749); test: FRET-based sensor emission spectra in the presence of urokinase; assay type: biochemical; settings: assembly 1×10^−5 M in PBS, about 1×10^−8 M urokinase, 0-6 minutes
T1 construct: purchased Innovative Research, Inc., Novi, Mich
Protocol: For the FRET-Based Sensor, five Zn-TCPP porphyrins were attached to one central stealth-protected Fe/Fe3O4 nanoparticle, and then a non-metalated TCPP porphyrin was attached to the central nanoparticle, using the procedure described below.
To prepare the stealth-protected Fe/Fe3O4-nanoparticles, 35 mg of dopamine-tetraethylene glycol ligand were dissolved in 5 ml THF. Next, 11.0 mg of Fe/Fe3O4-nanoparticles were added and sonicated at room temperature for 1 hour. […] The solid was then collected with a magnet and solvent was decanted carefully. The solid was washed with THF (3×3 ml). After drying under vacuum for 2 hours, 10.0 mg of stealth-protected nanoparticle product was obtained.
The oligopeptide linker was then attached to the metalated porphyrin. […]
The emission spectra of the nanoplatform assembly (1×10^−5 M) in PBS in the presence of about 1×10^−8 M urokinase is depicted in FIG. 4, at 0 (A), 2 (B), 4 (C), and 6 minutes (D). […] The reason for the observed non-linear behavior can be found in the high fluorescence quantum yield of the untethered, non-metalated TCPP. […]
In FIG. 5, the ratios of the integrals of the fluorescence bands shown at λ1=607 nm, λ2=654 nm, and λ3=718 nm are plotted versus the mol percent of released TCPP (as measured by HPLC using an Agilent workstation (HP 1050) equipped with an optical detection system). […]

urokinase [3] = biological target: T1, urokinase; test: Fluorescence/phosphorescence assay of uPA activity with chromophore-chromophore assembly; assay type: biochemical; settings: excitation of pyrene at 280 nm, 37° C., about 1×10^−8 mol urokinase, 0-15 minutes
Protocol: In this example, fluorescence/phosphorescence assays were used to measure activity of uPA. A chromophore-chromophore assembly was prepared using the peptide sequence SRSRSRSRSRSGRSAGGGC (SEQ ID NO: 18) (GenScript) as a spacer between a pyrene fluorophore and a coumarin acceptor. All chemicals and solvents were purchased from Fisher/Acros (Pittsburgh, Pa.), unless otherwise noted. The assembly was prepared by dissolving 0.00010 mol of coumarin in THF at room temperature. Next, 0.00012 mol of 1-ethyl-3-(3-dimethyllaminopropyl)carbodiimide (EDC) were added as solid under argon-atmosphere and allowed to react for 5 hours. Then, the oligopeptide linkage was attached to the coumarin by adding to the reaction 0.00010 mol of the oligopeptide dissolved in 1 ml bidest. (double purified) water, followed by stirring at room temperature for 24 hours under argon atmosphere. Next, 0.0020 mol of mercaptopyrene was added as a solid to the solution, and completely dissolved within 5 minutes. The solution was continuously stirred under ambient conditions for another 24 hours. […]
The spectral shift from the assay is depicted in FIG. 3. The changes in the emission spectra were measured using a spectrofluorometer (ISA-SPEX, Fluoromax-2; ISA, Inc., Edison, N.J.). Upon photoexcitation of the pyrene at 280 nm, FRET occurs, which causes the attached coumarin to emit most of the phosphorescence/luminescence. […]

urokinase [4] = biological target: T1, urokinase; test: UV/Vis-absorption spectroscopy measurement of uPA activity with nanoparticle-nanoparticle assembly; assay type: biochemical; settings: PBS, 37° C.
Protocol: In this procedure, UV/Vis-Absorption spectroscopy was used to measure the activity of uPA. All chemicals and solvents were purchased from Fisher/Acros (Pittsburgh, Pa.), unless otherwise noted. A nanoparticle-nanoparticle assembly was prepared using citrate-stabilized gold nanoparticles (Sigma-Aldrich, St. Louis, Mo.) with a 10 nm diameter and an oligopeptide with the following sequence: CGGGSGRSAGGGC (SEQ ID NO: 35) (GenScript, Piscataway, N.J.). First, 1 mg of the nanoparticles was suspended in 25 ml of tetrahydrofuran (THF) containing 1.0×10^−3 M of glycine. The microheterogeneous solution was heated under pressure (100 psi) and argon-atmosphere to 200° C. for 5 hours. The reaction was carried out using a High-Pressure Reactor (available from Parr Instruments, Moline, Ill.). Digestive ripening decreased the Au-nanoparticle diameter to 4-5 nm. The nanoparticles were then removed from the solution by ultracentrifugation at 30,000 rpm and then resuspended in THF. The procedure was repeated 10 times to remove all non-bonded glycine.
Next, 0.1 mg of the oligopeptide was added to the Au-nanoparticles in 1.0 ml of anhydrous THF, followed by stirring for 24 hours. The oligopeptide and nanoparticles were precipitated by centrifugation at 30,000 rpm and then resuspended in THF. This procedure was repeated 10 times. The linked Au—Au nanoparticle assemblies were then dissolved in phosphate buffer (PBS; pH=7.02), precipitated by centrifugation at 20,000 rpm and resuspended again in PBS.
The reported absorption coefficient at the maximum absorption of the plasmon is ε=7.66×10^9 M^−1 cm^−1. This absorption coefficient was used to estimate the concentration of the Au—Au nanoparticles at […].
The Au—Au nanoparticles in PBS solution were then added to a quartz cuvette (˜3.0 mL). The solution was heated to 37° C. for 15 minutes. Next, 1×10^−8 mol of urokinase in 0.050 ml of PBS (Innovative Research, Inc., Novi, Mich.) was added to the cuvette. […]

## O=C(O)c1ccc(-c2c3nc(c(-c4ccc(C(=O)O)cc4)c4ccc([nH]4)c(-c4ccc(C(=O)O)cc4)c4nc(c(-c5ccc(C(=O)O)cc5)c5ccc2[nH]5)C=C4)C=C3)cc1 [TCPP, tetracarboxy-phenyl-porphyrin]
[1]
  fluorescence quantum yield Φ: 0.082

## FRET-Based Sensor: five Zn-TCPP porphyrins and a non-metalated TCPP attached to one stealth-protected Fe/Fe3O4 nanoparticle via CGGGSGRSAGGGC linkers (cysteine pairing not given here; also: links Zn-TCPP porphyrins and TCPP to Fe/Fe3O4 nanoparticle, attachment points not given here)
Urokinase [2]
  fluorescence band at λ1=607 nm in the presence of urokinase: distinct decrease

## chromophore-chromophore assembly: pyrene fluorophore and coumarin acceptor linked by peptide SRSRSRSRSRSGRSAGGGC (SEQ ID NO: 18) (also: pyrene fluorophore and coumarin acceptor attached)
Urokinase [3]
  coumarin emission (FRET) after adding urokinase: decreases with time

## coupled pair of gold nanoparticles: 4-5 nm gold nanoparticles linked by oligopeptide CGGGSGRSAGGGC (SEQ ID NO: 35) (cysteine pairing not given here; also: attached to gold nanoparticles)
Urokinase [4]; 1×10^−8 mol urokinase
  maximum of the gold plasmon absorption after urokinase cleavage: 517 nm
  time for the shift of the plasmon absorption maximum: ≤ 180 s
Urokinase [4]; before adding urokinase
  maximum of the gold plasmon absorption before urokinase cleavage: 523 nm
